# Experimental data published in the supplement of paper PMC11246515.
# ± gives the standard deviation of the averaged measurements.
# Test: total protein half-life in vivo (active degradation + dilution); higher = more stable protein
# [1] = E. coli NCM3722 delta-clpP delta-lon delta-hslV, growth: N-lim chemostat, doubling time 6 h
# [2] = E. coli NCM3722 delta-clpP, growth: N-lim chemostat, doubling time 6 h
# [3] = E. coli NCM3722 delta-hslV, growth: N-lim chemostat, doubling time 6 h
# [4] = E. coli NCM3722 delta-lon, growth: N-lim chemostat, doubling time 6 h
# [5] = E. coli NCM3722 delta-smpB, growth: N-lim chemostat, doubling time 6 h
# [6] = wild type E. coli NCM3722, growth: C-lim chemostat, doubling time 3 h
# [7] = wild type E. coli NCM3722, growth: C-lim chemostat, doubling time 6 h
# [8] = wild type E. coli NCM3722, growth: C-lim chemostat, doubling time 12 h
# [9] = wild type E. coli NCM3722, growth: N-lim chemostat, doubling time 6 h
# [10] = wild type E. coli NCM3722, growth: N-lim chemostat, doubling time 12 h
# [11] = wild type E. coli NCM3722, growth: P-lim chemostat, doubling time 6 h
# [12] = wild type E. coli NCM3722, growth: P-lim chemostat, doubling time 12 h
Sequence,total protein half-life in vivo [1] [h],total protein half-life in vivo [2] [h],total protein half-life in vivo [3] [h],total protein half-life in vivo [4] [h],total protein half-life in vivo [5] [h],total protein half-life in vivo [6] [h],total protein half-life in vivo [7] [h],total protein half-life in vivo [8] [h],total protein half-life in vivo [9] [h],total protein half-life in vivo [10] [h],total protein half-life in vivo [11] [h],total protein half-life in vivo [12] [h]
MNNKGSGLTPAQALDKLDALYEQSVVALRNAIGNYITSGELPDENARKQGLFVYPSLTVTWDGSTTNPPKTRAFGRFTHAGSYTTTITRPTLFRSYLNEQLTLLYQDYGAHISVQPSQHEIPYPYVIDGSELTLDRSMSAGLTRYFPTTELAQIGDETADGIYHPTEFSPLSHFDARRVDFSLARLRHYTGTPVEHFQPFVLFTNYTRYVDEFVRWGCSQILDPDSPYIALSCAGGNWITAETEAPEEAISDLAWKKHQMPAWHLITADGQGITLVNIGVGPSNAKTICDHLAVLRPDVWLMIGHCGGLRESQAIGDYVLAHAYLRDDHVLDAVLPPDIPIPSIAEVQRALYDATKLVSGRPGEEVKQRLRTGTVVTTDDRNWELRYSASALRFNLSRAVAIDMESATIAAQGYRFRVPYGTLLCVSDKPLHGEIKLPGQANRFYEGAISEHLQIGIRAIDLLRAEGDRLHSRKLRTFNEPPFR [P0AE12],6.26 ± 1.5,5.49 ± 1,5.31 ± 0.55,4.76 ± 0.66,4.37 ± 0.083,3.24 ± 0.42,6.34 ± 0.73,10.6 ± 0.36,4.51 ± 0.26,8.24 ± 1.3,6.19 ± 0.32,–
MTDKTIAFSLLDLAPIPEGSSAREAFSHSLDLARLAEKRGYHRYWLAEHHNMTGIASAATSVLIGYLAANTTTLHLGSGGVMLPNHSPLVIAEQFGTLNTLYPGRIDLGLGRAPGSDQRTMMALRRHMSGDIDNFPRDVAELVDWFDARDPNPHVRPVPGYGEKIPVWLLGSSLYSAQLAAQLGLPFAFASHFAPDMLFQALHLYRSNFKPSARLEKPYAMVCINIIAADSNRDAEFLFTSMQQAFVKLRRGETGQLPPPIQNMDQFWSPSEQYGVQQALSMSLVGDKAKVRHGLQSILRETDADEIMVNGQIFDHQARLHSFELAMDVKEELLG [P0ADV5],4.46 ± 0.36,4.24 ± 0.94,5.06 ± 1.8,3.94 ± 0.19,3.55 ± 0.21,3.07 ± 0.28,–,–,4.47 ± 1.3,5.76 ± 1.3,6.06 ± 0.55,11.1 ± 0.18
MAKEFGRPQRVAQEMQKEIALILQREIKDPRLGMMTTVSGVEMSRDLAYAKVYVTFLNDKDEDAVKAGIKALQEASGFIRSLLGKAMRLRIVPELTFFYDNSLVEGMRMSNLVTSVVKHDEERRVNPDDSKED [P0A7G2],–,4.7644 ± 0.0036,4.43 ± 0.063,5.76 ± 0.31,4.56 ± 0.23,2.87 ± 0.079,5.38 ± 0.84,10.3 ± 0.93,4.6 ± 0.22,7.76 ± 0.5,4.66 ± 0.12,8.771 ± 0.013
MSVQQIDWDLALIQKYNYSGPRYTSYPTALEFSEDFGEQAFLQAVARYPERPLSLYVHIPFCHKLCYFCGCNKIVTRQQHKADQYLDALEQEIVHRAPLFAGRHVSQLHWGGGTPTYLNKAQISRLMKLLRENFQFNADAEISIEVDPREIELDVLDHLRAEGFNRLSMGVQDFNKEVQRLVNREQDEEFIFALLNHAREIGFTSTNIDLIYGLPKQTPESFAFTLKRVAELNPDRLSVFNYAHLPTIFAAQRKIKDADLPSPQQKLDILQETIAFLTQSGYQFIGMDHFARPDDELAVAQREGVLHRNFQGYTTQGDTDLLGMGVSAISMIGDCYAQNQKELKQYYQQVDEQGNALWRGIALTRDDCIRRDVIKSLICNFRLDYAPIEKQWDLHFADYFAEDLKLLAPLAKDGLVDVDEKGIQVTAKGRLLIRNICMCFDTYLRQKARMQQFSRVI,4.79 ± 0.99,3.9 ± 0.13,3.36 ± 0.42,3.22 ± 0.1,2.98 ± 0.056,2.55 ± 0.33,4.23 ± 0.08,6.14 ± 0.71,2.99 ± 0.12,4.64 ± 0.16,4.23 ± 0.068,7.23 ± 0.7
